Here are results for 1 substance from article PMC6141585.

For the test, the target named is actin filaments in growth cones of cultured hippocampal neurons (mouse (endogenous in cultured hippocampal neurons)). The test is described as follows: FRET or BRET; acceptor photobleaching FRET in growth cones of fixed 2 DIV hippocampal neurons; donor GFP or GFP-tagged construct, acceptor TRITC-phalloidin on actin filaments.

“MAP6-E-GFP (rat MAP6-E fused to GFP) (from UniProt Q63560 1-614) (natural protein)” showed an FRET efficiency of 52%.
